Target: TCF4 bHLH domain (Homo sapiens, UniProt P15884 565-624)
Assay: ITC

TCF4 bHLH domain, sequence (P15884 565-624): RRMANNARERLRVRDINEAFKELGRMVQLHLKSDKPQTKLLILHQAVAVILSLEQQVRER

B1: 12-mer TA-flanked, X=M (dsDNA)
DNA 1: ATACACGTGTAT
DNA 2: ATACACGTGTAT
modifications: 5mC at C4 and C6 of both strands
  binding result: no binding

B2: 12-mer TA-flanked, X=H (dsDNA)
DNA 1: ATACACGTGTAT
DNA 2: ATACACGTGTAT
modifications: 5hmC at C4 and C6 of both strands
  binding result: no binding

From article PMC6895265
